# According to US20210002358A1 (Janssen / Centocor, published 2021):
# Biological target: T1, soluble tau (control tau, recombinant 2N4R tau, SEQ ID NO: 31) (human, UniProt P10636 2-758)
# T1 construct: also called Sol-tau; recombinant WT tau
# Assay: direct ELISA on 2N4R Tau coated at 1 ng/mL
# Protocol: Binding to recombinant WT (2N4R; SEQ ID NO:31) tau was analyzed by ELISA where full-length Tau protein (1 ng/mL or 10 ng/mL) was directly coated to the plate and incubated with different concentrations of either recombinantly- or hybridoma produced PT82 antibody (FIG. 2). After incubation with antibodies, plates were again washed and 50 μL per well of HRPO labelled anti-mouse antibody (GE Healthcare) (diluted 1:10000 in blocking buffer) was added. After another washing step detection was performed with “One step” TMB (Thermo Scientific) according to the manufacturers' instructions. Plates were analysed in EnVision® 2102 Multilabel Reader (Perkin Elmer, Waltham, Mass., USA). Binding curves were generated using GraphPad Prism7.0 software. […] No substantial difference has been observed between binding profiles of recombinant and hybridoma produced antibodies.
# T1 sequence (P10636 other isoform, or with tags, fused parts or gaps limits assumed): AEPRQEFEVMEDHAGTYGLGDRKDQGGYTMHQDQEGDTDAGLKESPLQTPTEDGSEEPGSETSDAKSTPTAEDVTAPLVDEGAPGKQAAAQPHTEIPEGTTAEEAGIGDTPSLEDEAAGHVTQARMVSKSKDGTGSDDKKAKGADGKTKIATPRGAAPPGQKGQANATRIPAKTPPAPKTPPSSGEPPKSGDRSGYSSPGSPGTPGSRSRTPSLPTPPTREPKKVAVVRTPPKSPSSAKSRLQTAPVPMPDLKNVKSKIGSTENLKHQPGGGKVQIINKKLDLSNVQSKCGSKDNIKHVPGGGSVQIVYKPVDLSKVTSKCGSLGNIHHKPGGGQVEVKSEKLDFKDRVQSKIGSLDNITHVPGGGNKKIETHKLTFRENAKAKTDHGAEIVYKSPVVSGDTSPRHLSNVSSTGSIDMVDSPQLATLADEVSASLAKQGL
binder,measurement,value
"PT82 mAb (recombinantly expressed, mouse IgG2a/kappa) (antibody, V domains shown, also called recombinant PT82; mouse PT82) VH: EVKLEESGGGLVQPGGSMKLSCVASGFTFSNYWMNWIRQSPEKGLEWVAQIRLQSDNYATRYAESVKGRFTISRDESKTSVYLQMNNLRTEDTGIYYCTGGTTYWGQGTLVTVSA VL: DIVMTQSQKFMSTSVGDRVSITCKASQNVGTAVAWYQQKPGQSPKLLIYSASIRYTGVPDRFTGSGSGTDFTLTINYMQSEDLADYFCQQFSSYPYTFGGGTKLEIK",EC50 (read off the curve),~0.04 µg/mL
